Experimental findings from US20140370026A1 are described below.

For the assay, the target named is CD46 (UniProt P15529). Put plainly: cell-based or functional assay.
Sequence of CD46 (P15529 35-392 limits assumed): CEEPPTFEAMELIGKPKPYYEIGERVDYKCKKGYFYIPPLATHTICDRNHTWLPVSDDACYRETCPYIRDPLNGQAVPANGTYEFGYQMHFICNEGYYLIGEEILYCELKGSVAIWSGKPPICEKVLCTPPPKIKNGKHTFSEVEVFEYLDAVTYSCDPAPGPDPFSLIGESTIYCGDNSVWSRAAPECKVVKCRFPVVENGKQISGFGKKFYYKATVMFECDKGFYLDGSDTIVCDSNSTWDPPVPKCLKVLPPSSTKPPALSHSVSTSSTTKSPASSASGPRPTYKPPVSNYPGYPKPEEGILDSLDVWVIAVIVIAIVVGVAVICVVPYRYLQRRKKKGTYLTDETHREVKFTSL

Take “anti-CD46 antibody J4.48 (Chemicon International)”: the inhibition of human CMV (BADrUL131) infectivity of ARPE-19 epithelial cells (IE1 immunofluorescence) amounted to 77%.
